Test results as given in patent US20220259593A1, “CONTROL OF MAMMALIAN GENE DOSAGE USING CRISPR” (The Regents of the University of California, priority 2019, published 2022).
Substitutions are numbered along the chain they refer to.

B1: cr160 (nucleic acid)
guide: GTTTAAGAGCTAAGCTGGAAACAGCATAGCAATCTTAAATAAGGCTAGTCCGTTATCAACTTGAAAAAGTGGCACCGAGTCGGTGCT
modifications: listed as DNA, chemistry not fully specified
B2: cr352 (nucleic acid)
guide: B1 guide with T33G, C34T, A59C
modifications: listed as DNA, chemistry not fully specified
B3: cr092 (nucleic acid)
guide: B1 guide with T3G, A6G, T33G, C34T
modifications: listed as DNA, chemistry not fully specified
B4: cr415 (nucleic acid)
guide: B1 guide with T33G, C34T, G52C, A67T
modifications: listed as DNA, chemistry not fully specified
B5: cr902 (nucleic acid)
guide: B1 guide with T33G, C34T, G72A, C86T
modifications: listed as DNA, chemistry not fully specified
B6: cr706 (nucleic acid)
guide: B1 guide with T33G, C34G, C76G, G82C
modifications: listed as DNA, chemistry not fully specified
B7: cr778 (nucleic acid)
guide: B1 guide with T33G, C34T, C51G
modifications: listed as DNA, chemistry not fully specified
B8: cr339 (nucleic acid)
guide: B1 guide with T33G, C34T, G43C, G44C, C50G, C51G
modifications: listed as DNA, chemistry not fully specified
B9: cr584 (nucleic acid)
guide: B1 guide with T33G, C34T, A42T, G52T
modifications: listed as DNA, chemistry not fully specified
B10: cr272 (nucleic acid)
guide: B1 guide with A31C, T33C, C34T
modifications: listed as DNA, chemistry not fully specified
B11: cr967 (nucleic acid)
guide: B1 guide with T33G, C34T, G43C, C51G, C73A, G77A, C81T, G85T
modifications: listed as DNA, chemistry not fully specified
B12: cr664 (nucleic acid)
guide: B1 guide with T33C
modifications: listed as DNA, chemistry not fully specified
B13: cr463 (nucleic acid)
guide: B1 guide with T33G, C34T, G43C, C51G, A59C, T70G, G77T, C81A
modifications: listed as DNA, chemistry not fully specified
B14: cr807 (nucleic acid)
guide: B1 guide with T33G, C34T, A41T, A78T
modifications: listed as DNA, chemistry not fully specified
B15: cr281 (nucleic acid)
guide: B1 guide with T33G, C34T, A74T, C75G, C76G, G77C, G82C, T84A
modifications: listed as DNA, chemistry not fully specified
B16: cr174 (nucleic acid)
guide: B1 guide with G29C, T33G, C34T, T49G, G79T
modifications: listed as DNA, chemistry not fully specified
B17: cr744 (nucleic acid)
guide: B1 guide with T33G, C34A, A41C, A64T
modifications: listed as DNA, chemistry not fully specified
B18: cr109 (nucleic acid)
guide: B1 guide with T33G, C34T, T61A, T62A, A67T, A68T
modifications: listed as DNA, chemistry not fully specified
B19: cr100 (nucleic acid)
guide: B1 guide with T33G, C34T, A41G, T49C
modifications: listed as DNA, chemistry not fully specified
B20: cr247 (nucleic acid)
guide: B1 guide with C34T, G71A
modifications: listed as DNA, chemistry not fully specified
B21: cr615 (nucleic acid)
guide: B1 guide with T33G, C34T, G72C, C73G, A74T, C75G, T84A, C86G
modifications: listed as DNA, chemistry not fully specified
B22: cr266 (nucleic acid)
guide: B1 guide with A28G, T33G, C34G, T46G
modifications: listed as DNA, chemistry not fully specified
B23: cr376 (nucleic acid)
guide: B1 guide with T33C, C34T, C76G, G82C
modifications: listed as DNA, chemistry not fully specified
B24: cr512 (nucleic acid)
guide: B1 guide with T33G, C34G, G44C, C50G
modifications: listed as DNA, chemistry not fully specified
B25: cr883 (nucleic acid)
guide: B1 guide with T33G, C34T, A42G, C51G
modifications: listed as DNA, chemistry not fully specified
B26: cr499 (nucleic acid)
guide: B1 guide with T33C, C34T, T53A, T80G
modifications: listed as DNA, chemistry not fully specified
B27: cr057 (nucleic acid)
guide: B1 guide with T2C, T4C, T33G, C34T
modifications: listed as DNA, chemistry not fully specified
B28: cr060 (nucleic acid)
guide: B1 guide with T3G, T4C, T33G, C34T
modifications: listed as DNA, chemistry not fully specified
B29: cr537 (nucleic acid)
guide: B1 guide with T33G, A41T
modifications: listed as DNA, chemistry not fully specified
B30: cr518 (nucleic acid)
guide: B1 guide with C34T, A41G
modifications: listed as DNA, chemistry not fully specified

System: K562 CRISPRi cells
Test: Constant region variant library pooled growth screen, K562
Assay type: cell-based, human
In short: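 Cells were selected with puromycin for 2 days and then kept in RPMI-1640 spinner cultures, with duplicates handled separately. Targeting sequences comprised 3 sgRNAs per essential gene for 10 genes plus six non-targeting controls. Activities were normalized against pairing with the unmodified scaffold.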

[1] = sgRNA constant region variant, activity relative to unmodified constant region cr995, mean CRISPRi activity
[2] = sgRNA constant region variants, activity relative to the original, un-modified constant region cr995

Row | Molecule | Mean relative activity [1] | Mean relative activity [2]
1 | B1 | 0.007879 | –
2 | B2 | – | 1.031
3 | B3 | 0.006875 | –
4 | B4 | 0.007281 | –
5 | B5 | – | 1.031
6 | B6 | 0.006595 | –
7 | B7 | 0.0072 | –
8 | B8 | 0.00717 | –
9 | B9 | 0.005912 | –
10 | B10 | 0.00638 | –
11 | B11 | 0.006446 | –
12 | B12 | 0.007435 | –
13 | B13 | 0.006799 | –
14 | B14 | 0.00776 | –
15 | B15 | 0.006802 | –
16 | B16 | 0.006669 | –
17 | B17 | 0.006349 | –
18 | B18 | – | 1.031
19 | B19 | 0.005923 | –
20 | B20 | 0.007159 | –
21 | B21 | 0.006333 | –
22 | B22 | – | 0.005552
23 | B23 | 0.006963 | –
24 | B24 | 0.007414 | –
25 | B25 | 0.006975 | –
26 | B26 | 0.007257 | –
27 | B27 | – | 0.005757
28 | B28 | – | 0.005182
29 | B29 | – | 0.005276
30 | B30 | 0.006889 | –
